For assay [1], the target named is T1, CSF-1R-mFc (human, UniProt P07333 20-512, limits assumed).
T1 construct: not shown: mouse Fc (mFc)
The assay is described as follows: competition ELISA: CSF1-His coated, CSF-1R-mFc 0.15 μg/ml premixed with antibody. Background: ELISA stands for enzyme-linked immunosorbent assay.

Assay [2] deals with T2, 人CSF-1R-his重组蛋白 (human CSF-1R-his recombinant protein) (human, UniProt P07333 20-512, limits assumed).
T2 construct: Analyte of the ForteBio assay, 60 nM; also called CD115; M-CSF-R; not shown: His tag
The assay is described as follows: BLI (ForteBio), antibody on AHC probe, CSF-1R-his 60 nM, 1:1 fit. On the technique in general: Biolayer interferometry detects binding as a change in optical thickness at a sensor tip.

Assay [3] has as its target T2, 人CSF-1R-his重组蛋白 (human CSF-1R-his …). The assay is described as follows: BLI (ForteBio).
Assay [4] deals with T1, CSF-1R-mFc. The assay is described as follows: competition ELISA: human IL-34 coated, CSF-1R-mFc 0.15 μg/ml premixed with antibody.
For assay [5], the target named is T3, CSF-1R on rhCSF-1R-CHO cells (human, UniProt P07333 20-972).
T3 construct: whole, on cells; also called 细胞表面CSF-1R; CSF-1R-CHO细胞
The assay is described as follows: flow cytometry on rhCSF-1R-CHO cells, FITC goat anti-human. (In general: Flow cytometry measures light scatter and fluorescence of single cells or particles in a stream.)

The IC50 is the midpoint of a concentration-inhibition curve. One may read the Kd as a measure of binding affinity in units of concentration. A word on the koff: it is a measure of how fast the partners let go of each other. Usually kon stands for the second-order rate constant of association. Broadly, the EC50 is the concentration at which the effect is half-maximal. Low values mean higher potency in that assay, high ones lower potency in that assay.

T2 sequence (P07333 20-512 limits assumed): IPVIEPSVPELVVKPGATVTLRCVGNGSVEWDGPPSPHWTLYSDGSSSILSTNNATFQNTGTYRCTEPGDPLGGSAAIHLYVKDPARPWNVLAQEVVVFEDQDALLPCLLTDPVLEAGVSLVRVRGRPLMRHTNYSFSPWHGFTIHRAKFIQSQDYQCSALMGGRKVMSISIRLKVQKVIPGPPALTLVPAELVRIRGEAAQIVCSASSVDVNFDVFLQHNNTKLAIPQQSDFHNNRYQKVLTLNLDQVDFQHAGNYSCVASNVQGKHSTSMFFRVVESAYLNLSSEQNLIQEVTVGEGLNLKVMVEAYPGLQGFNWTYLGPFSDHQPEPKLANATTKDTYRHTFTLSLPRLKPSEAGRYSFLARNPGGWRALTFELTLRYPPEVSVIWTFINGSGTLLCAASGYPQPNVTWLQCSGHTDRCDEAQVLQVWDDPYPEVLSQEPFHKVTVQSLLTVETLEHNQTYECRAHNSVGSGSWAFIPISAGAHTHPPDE
T3 sequence (P07333 20-972): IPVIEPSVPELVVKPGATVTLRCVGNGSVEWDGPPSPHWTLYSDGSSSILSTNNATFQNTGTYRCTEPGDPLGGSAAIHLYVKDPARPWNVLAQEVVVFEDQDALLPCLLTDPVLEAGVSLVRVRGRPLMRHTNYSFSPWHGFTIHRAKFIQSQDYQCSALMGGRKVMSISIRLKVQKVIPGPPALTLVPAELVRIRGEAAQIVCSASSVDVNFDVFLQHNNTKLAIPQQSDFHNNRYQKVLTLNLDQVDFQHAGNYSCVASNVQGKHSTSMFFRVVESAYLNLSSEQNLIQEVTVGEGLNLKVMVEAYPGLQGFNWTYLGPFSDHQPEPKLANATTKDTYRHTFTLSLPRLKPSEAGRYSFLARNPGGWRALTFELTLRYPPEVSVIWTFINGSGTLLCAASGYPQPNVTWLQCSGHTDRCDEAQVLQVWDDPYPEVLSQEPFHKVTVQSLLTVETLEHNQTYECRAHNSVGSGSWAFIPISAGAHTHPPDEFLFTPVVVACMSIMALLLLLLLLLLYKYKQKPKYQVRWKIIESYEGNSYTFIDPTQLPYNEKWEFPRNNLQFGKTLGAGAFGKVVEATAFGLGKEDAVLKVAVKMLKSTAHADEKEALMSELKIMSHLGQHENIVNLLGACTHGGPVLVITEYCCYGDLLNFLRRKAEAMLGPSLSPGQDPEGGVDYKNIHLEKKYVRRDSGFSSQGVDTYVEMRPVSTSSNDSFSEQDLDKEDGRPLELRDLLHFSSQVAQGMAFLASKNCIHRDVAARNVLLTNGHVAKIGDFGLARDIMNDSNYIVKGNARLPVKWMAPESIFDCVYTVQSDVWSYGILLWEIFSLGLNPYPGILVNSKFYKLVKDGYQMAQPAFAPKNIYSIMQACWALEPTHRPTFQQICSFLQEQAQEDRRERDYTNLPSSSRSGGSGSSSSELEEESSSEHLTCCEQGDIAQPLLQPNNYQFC
T1 sequence (P07333 20-512 limits assumed): as the sequence (P07333 20-512 limits assumed) above

B1: ch73 (antibody, human IgG1, kappa, V domains shown)
VH: EVQLQQFGAELVKPGASVKISCKASGYTFTDYNMDWMKQSHGKSLEWIGDIIPNYDSATYNQKFKGKATLTVDRSSSTAYMELRSLSSEDTAVYYCARKGGGYVNWYFDVWGAGTTVTVSS
VL: DIQMNQSPSSLSASLGDTITITCHASQNINVWLSWYQQKPGNIPKLLIYKASNLHTGVPSRFSGSGSGTGFTLTISSLQPEDIATYYCQQGESYPYTFGGGTKLEIKR
notes: also called 嵌合抗体ch73; 73号
With B1, the half-maximal inhibitory concentration (IC50) in assay [1] is 323 pM; in assay [4] it was approximately 710 pM. The Kd in assay [2] and in assay [3] was 30 pM each time. Further, the koff in assay [2] and in assay [3] was 6.54e-06 s⁻¹ in each case. Moreover, the on-rate constant (kon) in assay [2] and in assay [3] was 218000 M⁻¹ s⁻¹ in each case.

B2: Lm1H (antibody, V domains shown)
VH: EVQLVQSGAEVKKPGASVKVSCKASGYTFTDYNMDWVRQAPGQGLEWMGDIIPNYDSATYNQKFKGRVTMTRDTSTSTVYMELSSLRSEDTAVYYCARKGGGYVNWYFDVWGQGTTVTVSS
VL: DIQMTQSPSSLSASVGDRVTITCRASQNINVWLSWYQQKPGKAPKLLIYKASNLHTGVPSRFSGSGSGTDFTFTISSLQPEDIATYYCQQGESYPYTFGGGTKVEIK
In the case of B2, in assay [3], the Kd was 68.3 pM, the koff amounted to 1.4e-05 s⁻¹ and the kon came out at 205000 M⁻¹ s⁻¹.

B3: Hm4L (antibody, V domains shown)
VH: EVQLVQSGAEVKKPGASVKVSCKASGYTFTDYNMDWVRQAPGQGLEWMGGIIPNYDSATYNQKFKGRVTMTRDTSTSTVYMELSSLRSEDTAVYYCARKGGGYVNWYFDVWGQGTTVTVSS
VL: DIQMTQSPSSLSASVGDRVTITCHASQNINVWLSWYQQKPGKAPKLLIYKASNLHTGVPSRFSGSGSGTDFTFTISSLQPEDIATYYCQQGESYPYTFGGGTKVEIK
For the molecule B3, in assay [3], the Kd was found to be 125 pM, the koff came out at 1.4e-05 s⁻¹ and the kon came to 112000 M⁻¹ s⁻¹.

B4: Hm5L (antibody, V domains shown)
VH: EVQLVQSGAEVKKPGASVKVSCKASGYTFTDYNMDWVRQAPGQGLEWMGDIIPNYESATYNQKFKGRVTMTRDTSTSTVYMELSSLRSEDTAVYYCARKGGGYVNWYFDVWGQGTTVTVSS
VL: DIQMTQSPSSLSASVGDRVTITCHASQNINVWLSWYQQKPGKAPKLLIYKASNLHTGVPSRFSGSGSGTDFTFTISSLQPEDIATYYCQQGESYPYTFGGGTKVEIK
As to B4, in assay [3], the Kd was 79.4 pM, the koff is 2.55e-05 s⁻¹ and the kon was 321000 M⁻¹ s⁻¹.

B5: Hm1L (antibody, V domains shown)
VH: EVQLVQSGAEVKKPGASVKVSCKASGYTFTEYNMDWVRQAPGQGLEWMGDIIPNYDSATYNQKFKGRVTMTRDTSTSTVYMELSSLRSEDTAVYYCARKGGGYVNWYFDVWGQGTTVTVSS
VL: DIQMTQSPSSLSASVGDRVTITCHASQNINVWLSWYQQKPGKAPKLLIYKASNLHTGVPSRFSGSGSGTDFTFTISSLQPEDIATYYCQQGESYPYTFGGGTKVEIK
In the case of B5, in assay [3], the dissociation constant (Kd) was found to be 85.3 pM, the koff was 2.2e-05 s⁻¹ and the kon was found to be 258000 M⁻¹ s⁻¹.

B6: Hm2L (antibody, V domains shown)
VH: EVQLVQSGAEVKKPGASVKVSCKASGYTFTSYNMDWVRQAPGQGLEWMGDIIPNYDSATYNQKFKGRVTMTRDTSTSTVYMELSSLRSEDTAVYYCARKGGGYVNWYFDVWGQGTTVTVSS
VL: DIQMTQSPSSLSASVGDRVTITCHASQNINVWLSWYQQKPGKAPKLLIYKASNLHTGVPSRFSGSGSGTDFTFTISSLQPEDIATYYCQQGESYPYTFGGGTKVEIK
For B6, in assay [3], the Kd came to 96.3 pM, the koff turned out to be 2.9e-05 s⁻¹ and the kon is 301000 M⁻¹ s⁻¹.

B7: Lm4Hm7 (antibody, V domains shown)
VH: EVQLVQSGAEVKKPGASVKVSCKASGYTFTSYNMHWVRQAPGQGLEWMGDIIPNYESATYAQKFKGRVTMTRDTSTSTVYMELSSLRSEDTAVYYCARKGGGYVNWYFDVWGQGTTVTVSS
VL: DIQMTQSPSSLSASVGDRVTITCHASQNINVYLNWYQQKPGKAPKLLIYKASNLHTGVPSRFSGSGSGTDFTFTISSLQPEDIATYYCQQGESYPYTFGGGTKVEIK
Regarding B7, in assay [3], the Kd worked out at 138 pM, the koff came to 2.02e-05 s⁻¹ and the kon was found to be 146000 M⁻¹ s⁻¹.

B8: Lm5H (antibody, V domains shown)
VH: EVQLVQSGAEVKKPGASVKVSCKASGYTFTDYNMDWVRQAPGQGLEWMGDIIPNYDSATYNQKFKGRVTMTRDTSTSTVYMELSSLRSEDTAVYYCARKGGGYVNWYFDVWGQGTTVTVSS
VL: DIQMTQSPSSLSASVGDRVTITCHASQNINVWLSWYQQKPGKAPKLLIYDASNLHTGVPSRFSGSGSGTDFTFTISSLQPEDIATYYCQQGESYPYTFGGGTKVEIK
For B8, in assay [3], the Kd was 105 pM, the koff is 2.1e-05 s⁻¹ and the kon came out at 200000 M⁻¹ s⁻¹.

B9: Lm7H (antibody, V domains shown)
VH: EVQLVQSGAEVKKPGASVKVSCKASGYTFTDYNMDWVRQAPGQGLEWMGDIIPNYDSATYNQKFKGRVTMTRDTSTSTVYMELSSLRSEDTAVYYCARKGGGYVNWYFDVWGQGTTVTVSS
VL: DIQMTQSPSSLSASVGDRVTITCRASQNINVWLSWYQQKPGKAPKLLIYDASNLETGVPSRFSGSGSGTDFTFTISSLQPEDIATYYCQQGESYPYTFGGGTKVEIK
The molecule B9 had an EC50 in assay [5] of 0.201 µg/mL. Further, in assay [3], the Kd is 63.4 pM, the koff worked out at 1.3e-05 s⁻¹ and the on-rate constant (kon) was found to be 205000 M⁻¹ s⁻¹.

B10: Lm4H (antibody, V domains shown)
VH: EVQLVQSGAEVKKPGASVKVSCKASGYTFTDYNMDWVRQAPGQGLEWMGDIIPNYDSATYNQKFKGRVTMTRDTSTSTVYMELSSLRSEDTAVYYCARKGGGYVNWYFDVWGQGTTVTVSS
VL: DIQMTQSPSSLSASVGDRVTITCHASQNINVYLNWYQQKPGKAPKLLIYKASNLHTGVPSRFSGSGSGTDFTFTISSLQPEDIATYYCQQGESYPYTFGGGTKVEIK
Regarding B10, in assay [3], the dissociation constant (Kd) stood at 189 pM, the koff came to 1.93e-05 s⁻¹ and the kon came to 102000 M⁻¹ s⁻¹.

B11: Hm3L (antibody, V domains shown)
VH: EVQLVQSGAEVKKPGASVKVSCKASGYTFTDYNMHWVRQAPGQGLEWMGDIIPNYDSATYNQKFKGRVTMTRDTSTSTVYMELSSLRSEDTAVYYCARKGGGYVNWYFDVWGQGTTVTVSS
VL: DIQMTQSPSSLSASVGDRVTITCHASQNINVWLSWYQQKPGKAPKLLIYKASNLHTGVPSRFSGSGSGTDFTFTISSLQPEDIATYYCQQGESYPYTFGGGTKVEIK
Take B11: in assay [3], the dissociation constant (Kd) was found to be 82 pM, the koff was 2.1e-05 s⁻¹ and the kon was 256000 M⁻¹ s⁻¹.

B12: Lm6H (antibody, V domains shown)
VH: EVQLVQSGAEVKKPGASVKVSCKASGYTFTDYNMDWVRQAPGQGLEWMGDIIPNYDSATYNQKFKGRVTMTRDTSTSTVYMELSSLRSEDTAVYYCARKGGGYVNWYFDVWGQGTTVTVSS
VL: DIQMTQSPSSLSASVGDRVTITCHASQNINVWLSWYQQKPGKAPKLLIYKASNLETGVPSRFSGSGSGTDFTFTISSLQPEDIATYYCQQGESYPYTFGGGTKVEIK
Consider B12, for which, in assay [3], the Kd amounted to 188 pM, the koff was 1.9e-05 s⁻¹ and the on-rate (kon) came out at 101000 M⁻¹ s⁻¹.

B13: Lm7Hm7 (antibody, V domains shown)
VH: EVQLVQSGAEVKKPGASVKVSCKASGYTFTSYNMHWVRQAPGQGLEWMGDIIPNYESATYAQKFKGRVTMTRDTSTSTVYMELSSLRSEDTAVYYCARKGGGYVNWYFDVWGQGTTVTVSS
VL: DIQMTQSPSSLSASVGDRVTITCRASQNINVWLSWYQQKPGKAPKLLIYDASNLETGVPSRFSGSGSGTDFTFTISSLQPEDIATYYCQQGESYPYTFGGGTKVEIK
For the molecule B13, in assay [3], the Kd came to 107 pM, the koff was determined as 1.23e-05 s⁻¹ and the kon amounted to 115000 M⁻¹ s⁻¹.

B14: Hm6L (antibody, V domains shown)
VH: EVQLVQSGAEVKKPGASVKVSCKASGYTFTDYNMDWVRQAPGQGLEWMGDIIPNYDSATYAQKFKGRVTMTRDTSTSTVYMELSSLRSEDTAVYYCARKGGGYVNWYFDVWGQGTTVTVSS
VL: DIQMTQSPSSLSASVGDRVTITCHASQNINVWLSWYQQKPGKAPKLLIYKASNLHTGVPSRFSGSGSGTDFTFTISSLQPEDIATYYCQQGESYPYTFGGGTKVEIK
In assay [5], B14 displayed an EC50 of 0.199 µg/mL. Besides, in assay [3], the Kd came to 78.5 pM, the koff was determined as 1.53e-05 s⁻¹ and the kon was 195000 M⁻¹ s⁻¹.

B15: Lm3H (antibody, V domains shown)
VH: EVQLVQSGAEVKKPGASVKVSCKASGYTFTDYNMDWVRQAPGQGLEWMGDIIPNYDSATYNQKFKGRVTMTRDTSTSTVYMELSSLRSEDTAVYYCARKGGGYVNWYFDVWGQGTTVTVSS
VL: DIQMTQSPSSLSASVGDRVTITCHASQNINVWLNWYQQKPGKAPKLLIYKASNLHTGVPSRFSGSGSGTDFTFTISSLQPEDIATYYCQQGESYPYTFGGGTKVEIK
In assay [5], B15 displayed an EC50 of 0.253 µg/mL. Moreover, in assay [3], the Kd was determined as 93.5 pM, the koff came out at 1.45e-05 s⁻¹ and the kon came to 155000 M⁻¹ s⁻¹.

B16: Lm2H (antibody, V domains shown)
VH: EVQLVQSGAEVKKPGASVKVSCKASGYTFTDYNMDWVRQAPGQGLEWMGDIIPNYDSATYNQKFKGRVTMTRDTSTSTVYMELSSLRSEDTAVYYCARKGGGYVNWYFDVWGQGTTVTVSS
VL: DIQMTQSPSSLSASVGDRVTITCHASQNINVYLSWYQQKPGKAPKLLIYKASNLHTGVPSRFSGSGSGTDFTFTISSLQPEDIATYYCQQGESYPYTFGGGTKVEIK
As to B16, in assay [3], the Kd came out at 109 pM, the koff amounted to 1.14e-05 s⁻¹ and the kon was 105000 M⁻¹ s⁻¹.

Source of the values: patent CN117886935A (BEIJING KENUO XINCHENG TECH CO LTD, dated 2024).
